Values quoted from earlier work, collected in publication PMC4760235.

Biological target: CD161 (Homo sapiens) (UniProt Q12918)
UniProt Q12918, sequence (Q12918 whole entry): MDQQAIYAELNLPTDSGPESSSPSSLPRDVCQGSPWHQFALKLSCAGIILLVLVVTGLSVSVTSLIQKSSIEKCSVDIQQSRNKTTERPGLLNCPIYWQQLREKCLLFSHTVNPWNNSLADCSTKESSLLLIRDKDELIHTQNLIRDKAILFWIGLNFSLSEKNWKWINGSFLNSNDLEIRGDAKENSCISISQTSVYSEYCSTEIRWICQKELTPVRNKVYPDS

- Kd: 48 µM
Substance: LLT1 (from UniProt Q9UHP7)
